Molecular target: T1, recombinant SCCA-1 with a polyhistidine tag (6x His), P29508
T1 chain: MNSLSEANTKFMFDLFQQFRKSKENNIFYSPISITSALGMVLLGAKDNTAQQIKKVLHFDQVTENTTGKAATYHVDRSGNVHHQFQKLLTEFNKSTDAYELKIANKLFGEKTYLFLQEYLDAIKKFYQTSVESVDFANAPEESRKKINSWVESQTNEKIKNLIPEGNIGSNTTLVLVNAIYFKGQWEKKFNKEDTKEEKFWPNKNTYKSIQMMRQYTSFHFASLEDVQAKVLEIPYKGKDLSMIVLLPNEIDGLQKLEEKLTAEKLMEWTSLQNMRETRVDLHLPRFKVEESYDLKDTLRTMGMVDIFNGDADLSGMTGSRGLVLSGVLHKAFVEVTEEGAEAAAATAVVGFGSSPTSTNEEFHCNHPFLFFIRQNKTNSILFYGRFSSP

B1: active recombinant phosphorylated JNK-1 (Cell Signaling) (protein)
chain: MSRSKRDNNFYSVEIGDSTFTVLKRYQNLKPIGSGAQGIVCAAYDAILERNVAIKKLSRPFQNQTHAKRAYRELVLMKCVNHKNIIGLLNVFTPQKSLEEFQDVYIVMELMDANLCQVIQMELDHERMSYLLYQMLCGIKHLHSAGIIHRDLKPSNIVVKSDCTLKILDFGLARTAGTSFMMTPYVVTRYYRAPEVILGMGYKENVDLWSVGCIMGEMVCHKILFPGRDYIDQWNKVIEQLGTPCPEFMKKLQPTVRTYVENRPKYAGYSFEKLFPDVLFPADSEHNKLKASQARDLLSKMLVIDASKRISVDEALQHPYINVWYDPSEAEAPPPKIPDKQLDEREHTIEEWKELIYKEVMDLEERTKNGVIRGQPSPLAQVQQ
amount of phosphorylated c-Jun (in vitro pull-down JNK kinase assay on c-Jun fused protein beads, western blot with anti-phosphorylated c-Jun antibody): in the case of incubating SCCA-1 with active JNK-1, the amount of phosphorylated c-Jun decreased remarkably as compared with the control not containing SCCA-1

B2: active recombinant phosphorylated JNK-2 (Cell Signaling) (protein)
chain: MSDSKCDSQFYSVQVADSTFTVLKRYQQLKPIGSGAQGIVCAAFDTVLGINVAVKKLSRPFQNQTHAKRAYRELVLLKCVNHKNIISLLNVFTPQKTLEEFQDVYLVMELMDANLCQVIHMELDHERMSYLLYQMLCGIKHLHSAGIIHRDLKPSNIVVKSDCTLKILDFGLARTACTNFMMTPYVVTRYYRAPEVILGMGYKENVDIWSVGCIMGELVKGCVIFQGTDHIDQWNKVIEQLGTPSAEFMKKLQPTVRNYVENRPKYPGIKFEELFPDWIFPSESERDKIKTSQARDLLSKMLVIDPDKRISVDEALRHPYITVWYDPAEAEAPPPQIYDAQLEEREHAIEEWKELIYKEVMDWEERSKNGVVKDQPSDAAVSSNATPSQSSSINDISSMSTEQTLASDTDSSLDASTGPLEGCR
amount of phosphorylated c-Jun (in vitro pull-down JNK kinase assay on c-Jun fused protein beads, western blot with anti-phosphorylated c-Jun antibody): in the case of incubating SCCA-1 with active JNK-2, there was no significant decrease in the amount of phosphorylated c-Jun observed as compared with the control

From patent US20050215509
